Data on 1 molecule can be found in patent publication US20220364094, “CD44 APTAMER” (The Chiness University Of Hong Kong, published 2022).

This series concerns the target CD44 hyaluronic acid binding domain (HABD) (UniProt P16070 P16070:21-178). In words: ELONA; hardly associated with HABD; epitope expected in region encoded by exons 15-16. The settings on record: tags: His-tag, commercial; captured via His-tag antibody; label: biotin (loop of second hairpin, 44G-48A region); two hairpins and one stem (predicted). Here is the method:
His-tag recombinant CD44 HABD protein was immobilized on ELISA plate using His-tag antibody. The captured CD44 proteins were incubated with various concentrations of biotin-labeled CD44-Apt1 (5 nM-10 μM). Bound Apt1 then were detected by peroxidase-conjugated streptavidin and TMB substrate. […] constant, KD was calculated based on the absorbance values using the one-site binding model for non-linear regression in GraphPad.
The major epitope in CD44 protein that is recognized by the CD44-Apt1 was next determined. CD44 protein consists of an extracellular domain, a transmembrane helical domain, and an intracellular signaling transmission domain (FIG. 1H). The extracellular domain contains a hyaluronic acid binding domain (HABD) at its distal N-terminus and a glycosylation-site enriched variable region, the length of which are vary in different splice variants. Titration sandwich enzyme-linked immunosorbent assay (ELISA) was employed to map the epitope for CD44-Apt1. Antibody targeting the C-terminus of CD44 proteins that is the intracellular signaling domain was immobilized on a polystyrene support. Sites without antibody were blocked using bovine serum albumin. […] The amount of biotin-CD44-Apt1 bound to the captured proteins were evaluated using streptavidin conjugated horseradish peroxidase (HRP) and TMB substrate.

Chain of CD44 hyaluronic acid binding domain (HABD) (P16070 21-178, one chain of several): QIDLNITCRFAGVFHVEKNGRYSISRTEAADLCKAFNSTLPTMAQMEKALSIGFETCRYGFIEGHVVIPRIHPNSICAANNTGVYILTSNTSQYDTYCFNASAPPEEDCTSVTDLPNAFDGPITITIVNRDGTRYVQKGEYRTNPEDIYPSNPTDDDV

B1: CD44-Apt1 (biotin) (ssDNA)
DNA: ATCCAGAGTGACGCAGCATCGCAACGATTAGTATGCACCCACCGTATAGGTTGGTCTCTGGACACGGTGGCTTAGT
For B1, the Kd is 2360 nM.

By Kd is commonly meant the constant that tells how readily two partners part at equilibrium.
